Values joined by “and” are separate entries in the source; they are usually repeats but may differ in a detail not shown here. Identical values can stand only once.
T1: ECF22_4450
T1 chain: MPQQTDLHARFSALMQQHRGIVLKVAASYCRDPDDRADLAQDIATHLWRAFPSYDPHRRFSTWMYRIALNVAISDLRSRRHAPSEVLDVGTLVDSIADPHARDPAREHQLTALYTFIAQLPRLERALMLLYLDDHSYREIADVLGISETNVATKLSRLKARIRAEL

T2: ECF03_1198
T2 chain: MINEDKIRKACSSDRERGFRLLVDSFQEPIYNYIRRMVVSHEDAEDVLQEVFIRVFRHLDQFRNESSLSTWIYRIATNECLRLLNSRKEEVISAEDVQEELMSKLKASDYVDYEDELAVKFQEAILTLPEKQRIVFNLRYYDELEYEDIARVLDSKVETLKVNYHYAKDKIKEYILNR

T3: ECF15_436
T3 chain: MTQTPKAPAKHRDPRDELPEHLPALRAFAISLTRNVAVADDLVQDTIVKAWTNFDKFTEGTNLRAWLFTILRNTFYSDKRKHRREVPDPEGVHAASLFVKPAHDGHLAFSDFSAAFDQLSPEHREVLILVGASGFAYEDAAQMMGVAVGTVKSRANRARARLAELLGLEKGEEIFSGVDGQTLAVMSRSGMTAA

T4: ECF02_2817
T4 chain: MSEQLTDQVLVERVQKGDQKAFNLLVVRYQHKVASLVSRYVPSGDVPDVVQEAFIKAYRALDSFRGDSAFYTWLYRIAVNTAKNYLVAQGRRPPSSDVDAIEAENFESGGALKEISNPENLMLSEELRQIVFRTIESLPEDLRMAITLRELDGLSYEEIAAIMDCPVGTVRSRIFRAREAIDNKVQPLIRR

T5: ECF22_1147
T5 chain: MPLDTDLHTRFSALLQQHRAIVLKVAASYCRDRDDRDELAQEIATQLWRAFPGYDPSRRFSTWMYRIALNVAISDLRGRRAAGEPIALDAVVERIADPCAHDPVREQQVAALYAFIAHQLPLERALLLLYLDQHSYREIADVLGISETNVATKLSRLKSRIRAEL

T6: ECF35_3582
T6 chain: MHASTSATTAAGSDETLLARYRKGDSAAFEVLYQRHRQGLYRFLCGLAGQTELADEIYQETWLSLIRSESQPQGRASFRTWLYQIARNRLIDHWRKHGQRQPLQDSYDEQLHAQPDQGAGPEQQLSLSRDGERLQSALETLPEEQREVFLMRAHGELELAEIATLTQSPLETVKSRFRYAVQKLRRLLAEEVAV

T7: ECF17_1691
T7 chain: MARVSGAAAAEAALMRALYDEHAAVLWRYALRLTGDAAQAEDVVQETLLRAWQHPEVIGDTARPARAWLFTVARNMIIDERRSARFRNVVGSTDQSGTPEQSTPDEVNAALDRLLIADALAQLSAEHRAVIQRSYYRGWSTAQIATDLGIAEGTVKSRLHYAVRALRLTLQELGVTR

T8: ECF11_987
T8 chain: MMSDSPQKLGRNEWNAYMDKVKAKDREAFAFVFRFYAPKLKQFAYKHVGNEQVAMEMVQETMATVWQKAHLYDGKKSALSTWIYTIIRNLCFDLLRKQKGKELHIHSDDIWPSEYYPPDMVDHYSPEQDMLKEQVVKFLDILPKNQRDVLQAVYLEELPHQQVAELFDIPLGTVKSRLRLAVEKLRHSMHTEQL

T9: ECF27_4265
T9 chain: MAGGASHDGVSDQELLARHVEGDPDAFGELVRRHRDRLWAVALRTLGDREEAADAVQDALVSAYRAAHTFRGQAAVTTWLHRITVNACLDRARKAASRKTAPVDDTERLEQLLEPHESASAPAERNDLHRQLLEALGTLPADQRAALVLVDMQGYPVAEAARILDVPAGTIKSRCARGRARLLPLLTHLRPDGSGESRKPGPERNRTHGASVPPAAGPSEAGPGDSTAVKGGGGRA

T10: ECF16_3622
T10 chain: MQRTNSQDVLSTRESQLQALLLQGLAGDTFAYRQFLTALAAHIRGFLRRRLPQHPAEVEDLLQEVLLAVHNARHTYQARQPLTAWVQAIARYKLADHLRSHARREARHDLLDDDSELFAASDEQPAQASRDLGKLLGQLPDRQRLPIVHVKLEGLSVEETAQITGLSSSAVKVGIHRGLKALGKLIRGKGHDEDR

T11: ECF12_807
T11 chain: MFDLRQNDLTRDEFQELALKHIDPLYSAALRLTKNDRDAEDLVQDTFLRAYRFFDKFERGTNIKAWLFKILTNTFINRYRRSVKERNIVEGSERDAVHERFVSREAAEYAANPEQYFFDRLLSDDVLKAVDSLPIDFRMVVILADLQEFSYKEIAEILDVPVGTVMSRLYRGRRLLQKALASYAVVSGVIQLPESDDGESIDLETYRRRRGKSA

T12: ECF04_1609
T12 chain: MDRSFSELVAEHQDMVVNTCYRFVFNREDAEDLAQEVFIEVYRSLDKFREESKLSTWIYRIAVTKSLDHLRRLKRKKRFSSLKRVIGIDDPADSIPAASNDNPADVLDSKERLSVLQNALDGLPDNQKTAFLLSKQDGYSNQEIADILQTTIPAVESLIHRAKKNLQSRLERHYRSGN

T13: ECF16_973
T13 chain: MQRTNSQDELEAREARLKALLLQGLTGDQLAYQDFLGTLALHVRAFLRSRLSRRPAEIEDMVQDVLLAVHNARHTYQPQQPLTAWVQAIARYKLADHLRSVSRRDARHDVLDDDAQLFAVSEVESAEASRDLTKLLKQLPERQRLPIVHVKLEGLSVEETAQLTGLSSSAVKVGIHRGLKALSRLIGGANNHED

T14: ECF25_1643
T14 chain: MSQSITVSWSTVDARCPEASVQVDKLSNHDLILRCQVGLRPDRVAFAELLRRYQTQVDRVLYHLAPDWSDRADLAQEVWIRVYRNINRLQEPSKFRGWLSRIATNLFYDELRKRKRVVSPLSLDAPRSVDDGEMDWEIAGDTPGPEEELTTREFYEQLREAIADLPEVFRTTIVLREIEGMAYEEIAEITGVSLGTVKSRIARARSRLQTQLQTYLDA

B1: AS01_3473 (protein)
chain: MSNYDNAELLALWLEGKLTPKQRDEFEQRCIQDSQFAEQVDAAAMVKIGADDYSSSEVPQWNKAATFEPQQANNSGSWLSGVSLVTSALAIVLVLTGTQVTTSEGELRIRFGSGQSEQALVKLVDSKLDAFKQNQQDAFTLYAQTLQQQQSESASQLTNYLLSSSRKERREDFAELIKFVNQQRSDDQLFYARQLNQLQQDVYHDATGVALESIQQ
B2: AS11_987 (protein)
chain: MNKHPDNNLLEAYASGSIDAVSGLVVATHLETCSKCRAYVNQVEASQANTVSESPSEYSPEFDDMLNDIINAEPVNDNVVIQDTAFVNVAGKSFELPKTLVRFSDLVGSWRSYGGKVFSAQIDLGEDARVSLMYIGENVQIPQHTHRGLESTLVLHGGFSDEDGQYEEGDLMVRDASVKHSPFTQEGEDCLCLTVLTEPMIFTQGVARIFNLFGKGLYP
B3: AS03_1244 (protein)
chain: MKQFDPDVNIRPKEDSIRHYSVPDDYFASFTDKLMAQIPAVKEENTVVVPSVALWPKLRPLLYLAASFLLMIGMFKAFSLFGVGSDTGRTTSTSAGLVALDHGDTRWSEDTDYRDFLHDNCAETVSDEWVLTDFSE
B4: AS04_1609 (protein)
chain: MNRTTEQRNAEVMKTIGLLDQMPRVEVDHLFRVRLMQRIEAMEVKKTSWSALPGGAFNPRLAFMALLLMLNIASALMLFMHGTPQATGSSGAIAESLTEDYGGPALSYYDDQTTIDR
B5: AS15_436 (protein)
chain: MAQSTEPKASPQEATAKGGDNTKGKSRKELQQQIDENLRRVYEEALVQEVPDRFAMLLDQLRQKGTGK
B6: AS14_1324 (protein)
chain: MSGSRPEPEGHLAEQHLGDRLSALVDGELGHDARERVLAHVATCPKCKAEVDAQRRLKNVFAEAAPPAPSESFLARLQGLPGGGDSDGGGSPFSGLPGGFGASAASGVFGPRRDERFEFDYVPAGSHTPVLPSATSGRGFRIHEVGRHESDRSASRGLRFAFAAAGAVSLAAIALGGVTLGTPDTTTEARGSGSGSNVTPLRTPGSAAATGSESQRRRTAGPLLGQGQRALGDLPVASTTASAPLLPGMPAPAGGDARQQAVRALTTPVTAGAAAMSPLIRPLEAVPPLSLSSWSAAPEVRPPGLLAAPDPAPSPYPAASPAASSSPLR
B7: AS03_1198 (protein)
chain: MDKDFDFDNIGKRTPYRTPDNFFEETQRKILERTVDEQRKKRRLKRIIPTVIAVAAVLAGILFTPSLRYMNTDTPSASNILAVDKNNVTTDPVDKWIKELSDEELEELVSFSENDIFLN

Assays:
ECF22_4450 = biological target: T1, ECF22_4450
ECF03_1198 = biological target: T2, ECF03_1198
ECF15_436 = biological target: T3, ECF15_436
ECF02_2817 = biological target: T4, ECF02_2817
ECF22_1147 = biological target: T5, ECF22_1147
ECF35_3582 = biological target: T6, ECF35_3582
ECF17_1691 = biological target: T7, ECF17_1691
ECF11_987 = biological target: T8, ECF11_987
ECF27_4265 = biological target: T9, ECF27_4265
ECF16_3622 = biological target: T10, ECF16_3622
ECF12_807 = biological target: T11, ECF12_807
ECF04_1609 = biological target: T12, ECF04_1609
ECF16_973 = biological target: T13, ECF16_973
ECF25_1643 = biological target: T14, ECF25_1643

Binder | fold repression (ECF22_4450) | fold repression (ECF03_1198) | fold repression (ECF15_436) | fold repression (ECF02_2817) | fold repression (ECF22_1147) | fold repression (ECF35_3582) | fold repression (ECF17_1691) | fold repression (ECF27_1331) | fold repression (ECF26_4464) | fold repression (ECF11_987) | fold repression (ECF27_4265) | fold repression (ECF16_3622) | fold repression (ECF12_807) | fold repression (ECF04_1609) | fold repression (ECF16_973) | fold repression (ECF25_1643)
B1 | 1.97 | 1.5 | 1.94 | 2.1 | 3.4 | 1.49 | 1.97 | 3.09 | 2.22 | 1.52 | 1.92 | 2.47 | 3.57 | 1.67 | 1.49 | 1.37 and 1.13
B2 | 5.44 | 2.32 | 3.32 | 3.07 | 2.64 | 1.71 | 2.68 | 3.06 | 2.97 | 77.4 | 2.05 | 5.11 | 4.25 | 2.66 | 2.76 | 2.1 and 1.71
B3 | 2.49 | 2.13 | 2.04 | 1.96 | 2.3 | 1.37 | 1.44 | 2.14 | 2.21 | 2.14 | 1.61 | 2.5 | 3.08 | 2.42 | 1.79 | 1.23 and 1.24
B4 | 9.53 | 6.14 | 5.75 | 2.53 | 5.37 | 3.24 | 1.22 | 2.31 | 6.23 | 6.21 | 3.11 | 13.1 | 5.09 | 7.83 | 6.3 | 1.05 and 1.18
B5 | 4.63 | 3.84 | 46.1 | 1.58 | 6.02 | 1.1 | 4.15 | 4.82 | 24.7 | 2.8 | 2.89 | 6.45 | 5.3 | 5.41 | 3.01 | 1.19 and 1.27
B6 | 8.4 | 3.58 | 6.5 | 2.97 | 8 | 4.28 | 4.81 | 8.27 | 15.9 | 6.84 | 2.31 | 6.46 | 8.92 | 4.65 | 4.45 | 3.84 and 3.33
B7 | 1.2 | 45.8 | 1.11 | 1.85 | 1.28 | 1.05 | 0.986 | 1.42 | 1.48 | 1.61 | 0.852 | 1.26 | 1.43 | 1.54 | 1.49 | 0.95 and 0.944

Reference: PMC3817407
